Results on 1 molecule are retold here after US20090028881A1.

Assay [1] addresses CCR5 mutant K171A (human) (UniProt P51681). As to the kind of experiment: alanine scanning epitope mapping; wild-type CCR5 defined as 100%.
Assay [2] concerns the target CCR5 mutant E172A (human) (UniProt P51681). The assay is described as above.

B1: <CCR5>Pz03.1C5 (antibody, V domains shown)
VH: QVQLKQSGPGLVRPSQSLSITCTVSGFPLGIFGVHWVRQSPGKGLEWLGVIWKGGNTDYNAAFMSRLRITKDNSKSQVFFRMNSLQTDDTAIYYCAKVNLADAMDYWGQGTSVIVSS
VL: DIQMTQSPASLSASVGETVTITCRASGNIHGYLAWFQQKQGKSPQLLVYNTKTLAEGVPSRFSGSGSGTQFSLKINSLQPEDFGNYYCQHHYDLPRTFGGGTKLEIKR
Turning to B1, the epitope binding (% of wild-type CCR5) in assay [1] and in assay [2] was 20% throughout.
